In the nanobody polyreactivity screen of Harvey et al. (2022):

Assay: yeast display, Sf9 membrane polyspecificity reagent, FACS + sequencing; frameworks hold sequencing errors
In short: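 Nanobodies came from a synthetic yeast display library in Saccharomyces cerevisiae BJ5465, induced with galactose for 36–48 hours and stained for 1 hour at 4 °C with 10% biotinylated, detergent-solubilized Sf9 membrane reagent. Cells were enriched on streptavidin microbeads and then FACS-sorted, with low and high (top ~1%) gates set on anti-HA fluorescence for expression and streptavidin fluorescence for reagent binding. Each polyreactivity label reflects the gate a clone came from. Genes were amplified by colony PCR, sequenced by MiSeq 2 × 250 and filtered by CDR length.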

Sequence | polyreactivity (PSR sort gate)
QVQHVESGVGLVQAGGSLRLSCAASGSIFVHNAMGWYRQAPGKERELVAGISARAASTYYADSVKGRFTISRDNAKNTVYLQMNSLKPEDTAVYYCAADRIPGYRVYGFYYWGQGTQVTVSS | low polyreactivity
QVQHVESRGGLVQAGGSLRLSCAASGFTFYTNVMGWSRQAPGKERELVAAINSGGSTNYADSVKGRFTISRDNAKNTVYLQMNSLKAEDTAVYYCNKRGTEIGYDYWGQGTQVTVSS | low polyreactivity
QVQHVESRGGLVQAGGSLRLSCAASGSTFCRYAMGWYRKAPGKEREFVARITYSSGRTYYADSVKGRFTISRDNAKNTVYLQMNSLKPDDTAVYYCAAGDYTRGPCGDYWGQGTQVTVSS | high polyreactivity
QVQHVESRGGLVQSGGSLRLSCAASGSIFSYYDLGWYRQAPGKERELVASISSGGSTYYADSVKGRFTISRDNAKNTVYLQMNSLKPEDTAVYYCAAVSRWLYWEDDYWGQGTQVTVSS | low polyreactivity
QVQHVESVGGIVQAGGSLRLICAASGFIFVGYAMGWYRQAPGKERELVAAISTSGGRTYYADSVKGRFTISRDNAKNTVYLQLNSLKPEDTAVYYCAAKRPGCIQYSYYYWGQGTQVTVSS | high polyreactivity
QVQHVESVGGLVQAGGSLRLSCAASASIIYANTMGWYRQAPGKEREFVATITDSGAIKYYADSVKGRFTISRDNAKNTVYLQMNSLKPEDTAVYYCNADSIYSARGWLYGYWGQGTQVTVSS | low polyreactivity
QVQHVQSGGGLVQAGGSLRLSCAASGSTFPGYAMGWYRQDPGKEREFVAAISTSGGRTYYADSVKGRFTISRDNAKNTVYVQMNSLKPEDTAVYFCNADRYSQYSHSRYDYWGQGTQVTVSS | high polyreactivity
QVQIEESGGGLVQAGGSHRLSCAASGRTFGGNAMGRYRQAPRKERELVAAISISGGSNTYYADSVKGRFTISRDTGKNTVYLQMNSLKPEDTAVYFCAARSTVYISSDYWGQGTQVTVSS | low polyreactivity
QVQIEESGGGLVQAGGSLRLICAASGIIIMDYDMGWSRQAPGKERELVAAISRSGGSTYYADSVKGRFKISRDNAKNSVYLQMNSLKPEDTAVYYCNADNVDYPSAPLNPGKGIYYWGQGTQVTVSS | low polyreactivity
QVQIEESGGGLVQAGGSLRLSCAASASIFYPNAMGWYRQAPVKEREFVAAITRNGDSTYYADSVKGRFTISRDNAKNTVYLQMNSLKPEDTAVYYCNTDGQGIYSYNKDLSWISGYDYWGQGTQVTVSS | low polyreactivity
QVQIEESGGGLVQAGGSLRLSCAASGITFYWYARGWYRQAPVTERELVAAITRSGSSTYYADSVKGRFTISRDNAKNTVYLQMYSLKPEDTAVDYCAALPYKPYYDAYDYWGQGTQVTVSS | high polyreactivity
QVQIEESGGGLVQAGGSLRLSCAASGRIFARNALGWYRQSPGTEREFVAAITHSGGNTYYADSVKGRFTISRDNAKNSVYLQMNSLKPEDTAVYYCAKDYRSTKYDYWGQGTQVTVSS | low polyreactivity
QVQIGESGGGLVQAGGSLRLSCAASGSIIVGYAMGWYRQAPGKEREVVAAISKRGTSTYYADSVKGRFTISRDNAKNTVYLQMNSLKPEETAVYDCNALDLVNHGWTERLDQDYYYWGQGTQVTVSS | high polyreactivity
QVQIGESGGGLVQAGGSRRLSCAASGLTFYLYAMGWYRQAPGKERELVAAITTSGGSTYYADSVKGRFTISRDNAKNTVYLQMNSLKPEDTAVYDCATQGAIRGYGYWGQGTQVTVSS | high polyreactivity
QVQIGQSGGGLVQAGGSLRLSCAASGRIIWSNAMGWNRQAPGKERELVAAIRNTGSTNYADSVKGRFTISRDNAKNTVYLQMNSLKPEDTEVYYCAADRATYCTYAYGYWGQGTQVTVSS | high polyreactivity
QVQILESGGGLVQAGGSLRLSCAASGRIFGGYAMGWYRQAPGKERELVAAIRWRGGRTYYADSVKGRFTISRDNAKNTVYLQMNSLKPEDTAVYYCAADYSFTGHRYTYGYWGQGTQVTVSS | high polyreactivity
QVQILESGVGLVQPGGSLRLICAASGITLQFYALGWYRKATGKEAELVAAISISGGRTYYADSVKGRFTISRDNAKNTFYLQMNSLKPEDTAVYYCAAYLQRAYRYGYWGQGTQVTVSS | high polyreactivity
QVQILETGGGLVQAGGSLSLSCAASGSIFYSNAMGWYRQAPGKESEIVAAISAGGGSTYYADSVKGRFTISRDNAINTVYLQMNSLKPEDTAVYYCAAQPYKIIYPYDYWGQGTQVTVSS | low polyreactivity
QVQIVDSGGGLVQAGGSLRLSCAASGRTFNYYAKGWYRQAPGKERQLVAAISKSGGSTYYADSVKGRFTISRDNEKNTVYLQMNSLKPEETAVYYCAALTTHAPHSYNYWGQGTQVTVSS | low polyreactivity
QVQIVESGAGLVQAGGSLRLSCAPSGRIFVTNAMGWYRQSPGKERELGAAITSGGSTYYADSVKGRFTISRDNAKNNVYLQMNSLKPEDTAVFYCARPVFSQRYVTTRYDYWGQGTQVTVSS | low polyreactivity
QVQIVESGARLVQAGGSLRLSCAASGRTFYAYAMGWYTQAPGKDREYFASIRLRGGSTYYADSVKGRFTISRDNAKNTVYLQMHSLKPEDTAVYYGNAFYGGSSSYWYYSWGQGTQVTVSS | high polyreactivity
